Data on one molecule can be found in publication PMC10307831, “GATA zinc finger protein p66β promotes breast cancer cell migration by acting as a co-activator of Snail”.

Data set [1] addresses GST-Snail-ΔZn (zinc finger mutant) (UniProt O95863 1-264, H176D;C180A;C210D;H230D;H252D;C259A). The experiment in a line: pull-down; EMSA: 10 mM Tris pH 7.5, 50 mM KCl, 1 mM DTT, 5 mM MgCl2, 2.5% glycerol, 0.05% NP-40, 50 ng/ul poly(dI.dC), 600 fmol probe, 12 ug GST protein in 20 ul; gel 6% 0.5x TBE 4 C. Pull-down: NeutrAvidin beads, 8 h 4 C, washed in IP buffer (50 mM Tris pH 7.5, 150 mM NaCl, 1% Triton X-100). The note with it: protein: recombinant; tags: N-terminal GST; label: biotin (probe); blunt. Background: In EMSA bound probe runs differently from free probe, usually more slowly.

Data set [2] has as its target GST-Snail;Flag-p66β (human?;human?, UniProt O95863;Q8WXI9 1-264;1-593, |). The data set is described as follows: pull-down; p66β enhanced Snail binding; EMSA: 10 mM Tris pH 7.5, 50 mM KCl, 1 mM DTT, 5 mM MgCl2, 2.5% glycerol, 0.05% NP-40, 50 ng/ul poly(dI.dC), 600 fmol probe, 12 ug GST protein in 20 ul; gel 6% 0.5x TBE 4 C. Pull-down: NeutrAvidin beads, 8 h 4 C, washed in IP buffer (50 mM Tris pH 7.5, 150 mM NaCl, 1% Triton X-100). The note with it: protein: recombinant;recombinant; tags: N-terminal GST (pGEX-4T-1);Flag; label: biotin (probe); blunt.

Chain of GST-Snail;Flag-p66β (O95863 whole entry, chain 1 of 2): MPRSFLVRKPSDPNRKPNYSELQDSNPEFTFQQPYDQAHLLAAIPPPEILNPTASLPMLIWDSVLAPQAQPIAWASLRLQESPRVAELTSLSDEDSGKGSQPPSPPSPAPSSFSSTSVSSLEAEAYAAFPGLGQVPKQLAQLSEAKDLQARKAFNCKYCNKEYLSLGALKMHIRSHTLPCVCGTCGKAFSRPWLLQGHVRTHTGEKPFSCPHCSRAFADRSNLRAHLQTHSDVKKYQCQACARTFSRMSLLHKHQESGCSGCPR
Chain of GST-Snail;Flag-p66β (Q8WXI9 whole entry, chain 2 of 2): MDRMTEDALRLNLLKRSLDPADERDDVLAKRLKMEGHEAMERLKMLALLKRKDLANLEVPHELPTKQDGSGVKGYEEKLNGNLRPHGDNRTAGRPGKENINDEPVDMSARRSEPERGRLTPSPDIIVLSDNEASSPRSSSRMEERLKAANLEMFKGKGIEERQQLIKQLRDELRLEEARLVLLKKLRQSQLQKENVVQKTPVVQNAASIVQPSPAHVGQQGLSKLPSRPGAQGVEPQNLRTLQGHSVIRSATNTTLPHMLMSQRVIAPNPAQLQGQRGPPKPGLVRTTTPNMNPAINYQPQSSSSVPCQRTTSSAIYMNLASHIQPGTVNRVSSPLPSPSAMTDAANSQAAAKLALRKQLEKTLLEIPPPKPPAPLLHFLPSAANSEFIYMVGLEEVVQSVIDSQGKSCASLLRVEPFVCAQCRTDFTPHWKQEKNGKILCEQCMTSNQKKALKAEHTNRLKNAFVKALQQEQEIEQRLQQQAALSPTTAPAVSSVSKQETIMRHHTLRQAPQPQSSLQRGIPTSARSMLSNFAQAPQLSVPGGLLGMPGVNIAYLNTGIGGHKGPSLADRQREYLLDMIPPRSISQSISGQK
Chain of GST-Snail-ΔZn (zinc finger mutant) (O95863 whole entry H176D/C180A/C210D/H230D/H252D/C259A): as the sequence (O95863 whole entry, chain 1 of 2) above, with H176D, C180A, C210D, H230D, H252D, C259A counted along it

B1: COL6A2-G-box-WT (dsDNA)
DNA 1: GGCCCCCTCCTCCCATCCGCG
DNA 2: CGCGGATGGGAGGAGGGGGCC
B1: the results for the binding result in data set [1] and in data set [2] were “no binding” and “binds”, respectively.
